Article PMC5416842, “The ribosome biogenesis factor yUtp23/hUTP23 coordinates key interactions in the yeast and human pre-40S particle and hUTP23 contains an essential PIN domain” (Nucleic Acids Research, 2017)
Values belong to the molecule of their own block, whether it stands above or below them.

B2: GST-tagged human hUTP23 (natural protein, UniProt Q9BRU9 1-249, looked up)
chain: MKITRQKHAKKHLGFFRNNFGVREPYQILLDGTFCQAALRGRIQLREQLPRYLMGETQLCTTRCVLKELETLGKDLYGAKLIAQKCQVRNCPHFKNAVSGSECLLSMVEEGNPHHYFVATQDQNLSVKVKKKPGVPLMFIIQNTMVLDKPSPKTIAFVKAVESGQLVSVHEKESIKHLKEEQGLVKNTEQSRRKKRKKISGPNPLSCLKKKKKAPDTQSSASEKKRKRKRIRNRSNPKVLSEKQNAEGE
notes: hUTP23, human; open reading frame amplified from human cDNA; also called GST-hUTP23
B5: protein-A-His-tagged yUtp23 (natural protein, S. cerevisiae, UniProt Q12339 1-254, looked up)
chain: MRQKRAKSYRKQLLVYSHTFKFREPYQVLVDNQLVLECNNSNFNLPSGLKRTLQADVKVMITQCCIQALYETRNDGAINLAKQFERRRCNHSFKDPKSPAECIESVVNISGANKHRYVVASQDIDLRRKLRTVPGVPLIHLTRSVMVMEPLSTASAKASKITEEQKLYKGLNDPNIEKLQESGDGSGKESITKKRKLGPKAPNPLSVKKKKKVNSPSDEVKDKEDTSKEKKKRRRRKHKSNTNVPVSNGTTAAQ
notes: yUtp23, S. cerevisiae; open reading frame amplified from yeast genomic DNA

Columns and labels:
[1] = molecular target: T1, GST-yUtp23 WT (Saccharomyces cerevisiae) (UniProt Q12339); assay: EMSA; settings: EMSA: 10 mM Tris/HCl pH 7.6, 75 mM NaCl, 2 mM DTT, 100 ng/ul BSA, 0.8 U/ul RNasin, 4.5% glycerol, 0.05% Tween20, 500 ng/ul E. coli tRNA; 10 min 30 C then 10 min
T1 sequence: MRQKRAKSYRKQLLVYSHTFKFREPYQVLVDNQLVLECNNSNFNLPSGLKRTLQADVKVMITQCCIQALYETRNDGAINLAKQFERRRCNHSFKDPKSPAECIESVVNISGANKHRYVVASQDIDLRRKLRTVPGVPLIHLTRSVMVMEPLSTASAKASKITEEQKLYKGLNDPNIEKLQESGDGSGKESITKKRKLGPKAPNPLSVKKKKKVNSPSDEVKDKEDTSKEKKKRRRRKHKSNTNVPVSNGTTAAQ

[2] = system: GST-yUtp23 WT (Saccharomyces cerevisiae); assay: EMSA; settings: 100-1000 nM protein; EMSA: 10 mM Tris/HCl pH 7.6, 75 mM NaCl, 2 mM DTT, 100 ng/ul BSA, 0.8 U/ul RNasin, 4.5% glycerol, 0.05% Tween20, 500 ng/ul E. coli tRNA; 10 min 30 C then 10 min
[3] = molecular target: T1, GST-yUtp23 WT (Saccharomyces cerevisiae); assay: competition; settings: EMSA: 10 mM Tris/HCl pH 7.6, 75 mM NaCl, 2 mM DTT, 100 ng/ul BSA, 0.8 U/ul RNasin, 4.5% glycerol, 0.05% Tween20, 500 ng/ul E. coli tRNA; 10 min 30 C then 10 min
[4] = molecular target: B5; assay: pull-down; GST-tagged yeast bait proteins immobilised on glutathione sepharose (pre-blocked with BSA), incubated with recombinant protein-A-His-tagged yUtp23 for 1 h at 4°C in Buffer NB (20 mM Tris/HCl pH 7.6, 150 mM NaCl, 8.7% glycerol, 0.1% Tween20); five washes; SDS-PAGE, Coomassie staining; settings: both partners purified
[5] = molecular target: T2, N-terminally His-tagged hRRP7 (human, UniProt Q9Y3A4 1-280); assay: pull-down; GST-tagged hUTP23 immobilised on glutathione sepharose (pre-blocked with BSA), incubated with N-terminally His-tagged recombinant human proteins for 1 h at 4°C in Buffer NB (20 mM Tris/HCl pH 7.6, 150 mM NaCl, 8.7% glycerol, 0.1% Tween20); five washes; SDS-PAGE, immunoblotting with anti-His and anti-GST antibodies; settings: both partners purified
T2 construct: hRRP7, human; open reading frame amplified from human cDNA; The legend says that C-terminally truncated forms of the His-tagged hRRP7 protein were also present in the preparation; not shown: His tag, N-terminal, kept
T2 sequence (looked up): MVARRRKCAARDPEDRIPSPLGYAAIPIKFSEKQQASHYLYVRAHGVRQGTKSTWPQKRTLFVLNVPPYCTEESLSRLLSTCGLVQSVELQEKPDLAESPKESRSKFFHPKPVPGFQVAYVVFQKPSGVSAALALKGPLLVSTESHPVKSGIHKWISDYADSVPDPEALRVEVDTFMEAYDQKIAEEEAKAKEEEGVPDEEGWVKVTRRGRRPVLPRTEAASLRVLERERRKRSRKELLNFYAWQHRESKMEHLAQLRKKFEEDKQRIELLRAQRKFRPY

GST-tagged human hUTP23 = molecular target: B2; assay: as above; settings: both partners purified
GST-tagged yeast yUtp23 = molecular target: T3, GST-tagged yeast yUtp23 (S. cerevisiae, UniProt Q12339 1-254); assay: pull-down; GST-tagged yeast bait proteins immobilised on glutathione sepharose (pre-blocked with BSA), incubated with recombinant protein-A-His-tagged yUtp23 for 1 h at 4°C in Buffer NB (20 mM Tris/HCl pH 7.6, 150 mM NaCl, 8.7% glycerol, 0.1% Tween20); five washes; SDS-PAGE, Coomassie staining; settings: both partners purified
T3 construct: yUtp23, S. cerevisiae; open reading frame amplified from yeast genomic DNA; also called GST-yUtp23
T3 sequence (looked up): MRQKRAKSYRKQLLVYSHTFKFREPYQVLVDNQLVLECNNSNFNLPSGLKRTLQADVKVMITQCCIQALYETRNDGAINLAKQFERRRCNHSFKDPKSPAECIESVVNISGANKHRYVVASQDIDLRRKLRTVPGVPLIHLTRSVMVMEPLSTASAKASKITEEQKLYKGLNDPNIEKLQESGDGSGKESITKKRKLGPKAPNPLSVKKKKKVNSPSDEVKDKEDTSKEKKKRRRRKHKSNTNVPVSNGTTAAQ

GST-tagged yeast yRrp7 = molecular target: T4, GST-tagged yeast yRrp7 (S. cerevisiae, UniProt P25368 1-297); assay: as above; settings: both partners purified
T4 construct: yRrp7, S. cerevisiae; open reading frame amplified from yeast genomic DNA; also called GST-yRrp7
T4 sequence (looked up): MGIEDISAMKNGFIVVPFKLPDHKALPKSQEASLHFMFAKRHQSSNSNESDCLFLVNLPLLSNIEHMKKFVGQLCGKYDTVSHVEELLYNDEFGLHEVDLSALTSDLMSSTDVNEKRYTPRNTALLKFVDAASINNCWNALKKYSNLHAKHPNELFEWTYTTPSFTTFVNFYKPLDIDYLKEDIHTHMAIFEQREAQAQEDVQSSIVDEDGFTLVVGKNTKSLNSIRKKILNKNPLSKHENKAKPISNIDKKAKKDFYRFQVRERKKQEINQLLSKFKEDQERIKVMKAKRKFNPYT

Molecule: GGCCGCAGUAUAUUCCUAAACACUAUGAAAUGACCCUAGUUGGUCCAUGAUCAUUUGGGUAAAACCAUACUGCAGACAUCU [snR30 3' HP (nt 531-606)]
binding [1]: no binding

Molecule: GGGUAGGACGCAUGAUCUUGAGCUCUUUUCCUAUACUUUGUCCUAUGGCCAGCUUUCUCCUUAUUACGAAGAGAUUGCGGGAUGUGGGUGCAGAGUGGGAAAAUCUGAGUUCGGUCAUCUUUGUUGUUCGUCCUAC [snR30 IH (nt 398-531)]
binding [1]: no binding

Molecule: snR30 full length (nt 1-606)
Kd [2]: 300 nM

Molecule: GGGUAGGACGCAUGAUCUUGAGCUCUUUUCCUAUACUUUGUCCUAUGGCCAGCUUUCUCCUUAUUACGAAGAGAUUGCGGGAUGUGGGUGCAGAGUGGGAAAAUCUGAGUUCGGUCAUCUUUGUUGUUCGUCCUACCGCAGUAUAUUCCUAAACACUAUGAAAUGACCCUAGUUGGUCCAUGAUCAUUUGGGUAAAACCAUACUGCAGACAUCU [snR30 IH + 3' HP (nt 398-606)]
binding [1]: binds more weakly

Molecule: GGCGUAUUGCUCGAAUAUAUUAGCAUGGAAUAAUAGAAUAGGACGUUUGGUUCUAUUUUGUUGGUUUCUAGGACCAUCGUAAUGAUUAAUAGGGACGGUCGGGGGCAUCAGUAUUCAAUUGUCAGAGGUGAAAUUCUUGGAUUUAUUGAAGACUAACUACUGCGAAAGCAUUUGCCAAGGACGUUUUCA [18S rRNA ES6 fragment (nt 775-963, RNA A)]
binding [3]: binds

binding result [4]: binds
B1: GST-tagged yeast yUtp24 (natural protein, S. cerevisiae, UniProt Q05498 1-189, looked up)
chain: MGKAKKTRKFGLVKRTLNTKKDQRLKKNQENIKTKEDPELTRNIPQVSSALFFQYNQAIKPPYQVLIDTNFINFSIQKKVDIVRGMMDCLLAKCNPLITDCVMAELEKLGPKYRIALKLARDPRIKRLSCSHKGTYADDCLVHRVLQHKCYIVATNDAGLKQRIRKIPGIPLMSVGGHAYVIEKLPDVF
notes: yUtp24/Fcf1, S. cerevisiae; open reading frame amplified from yeast genomic DNA; also called Fcf1; yUtp24(Fcf1)

Molecule: B2
binding result [5]: binds

binding result (GST-tagged human hUTP23): binds
B3: N-terminally His-tagged hNHP2 (natural protein, human, UniProt Q9NX24 1-153, looked up)
chain: MTKIKADPDGPEAQAEACSGERTYQELLVNQNPIAQPLASRRLTRKLYKCIKKAVKQKQIRRGVKEVQKFVNKGEKGIMVLAGDTLPIEVYCHLPVMCEDRNLPYVYIPSKTDLGAAAGSKRPTCVIMVKPHEEYQEAYDECLEEVQSLPLPL
notes: core box H/ACA protein hNHP2, human; open reading frame amplified from human cDNA; not shown: His tag, N-terminal, kept

binding result (GST-tagged human hUTP23): binds
B4: N-terminally His-tagged hUTP24 (natural protein, human, UniProt Q9Y324 1-198, looked up)
chain: MGKQKKTRKYATMKRMLSLRDQRLKEKDRLKPKKKEKKDPSALKEREVPQHPSCLFFQYNTQLGPPYHILVDTNFINFSIKAKLDLVQSMMDCLYAKCIPCITDCVMAEIEKLGQKYRVALRIAKDPRFERLPCTHKGTYADDCLVQRVTQHKCYIVATVDRDLKRRIRKIPGVPIMYISNHRYNIERMPDDYGAPRF
notes: hUTP24 (human homologue of yUtp24/Fcf1); open reading frame amplified from human cDNA; not shown: His tag, N-terminal, kept

Molecule: B5
binding result (GST-tagged yeast yUtp23): binds | binding result (GST-tagged yeast yRrp7): binds
